The chains are these.
B1: Regulatory protein NPR1 (Arabidopsis thaliana (Mouse-ear cress)), P93002 (parent)
chain: MDTTIDGFADSYEISSTSFVATDNTDSSIVYLAAEQVLTGPDVSALQLLSNSFESVFDSPDDFYSDAKLVLSDGREVSFHRCVLSARSSFFKSALAAAKKEKDSNNTAAVKLELKEIAKDYEVGFDSVVTVLAYVYSSRVRPPPKGVSECADENCCHVACRPAVDFMLEVLYLAFIFKIPELITLYQRHLLDVVDKVVIEDTLVILKLANICGKACMKLLDRCKEIIVKSNVDMVSLEKSLPEELVKEIIDRRKELGLEVPKVKKHVSNVHKALDSDDIELVKLLLKEDHTNLDDACALHFAVAYCNVKTATDLLKLDLADVNHRNPRGYTVLHVAAMRKEPQLILSLLEKGASASEATLEGRTALMIAKQATMAVECNNIPEQCKHSLKGRLCVEILEQEDKREQIPRDVPPSFAVAADELKMTLLDLENRVALAQRLFPTEAQAAMEIAEMKGTCEFIVTSLEPDRLTGTKRTSPGVKIAPFRILEEHQSRLKALSKTVELGKRFFPRCSAVLDQIMNCEDLTQLACGEDDTAEKRLQKKQRYMEIQETLKKAFSEDNLELGNSSLTDSTSSTSKSTGGKRSNRKLSHRRR
partner: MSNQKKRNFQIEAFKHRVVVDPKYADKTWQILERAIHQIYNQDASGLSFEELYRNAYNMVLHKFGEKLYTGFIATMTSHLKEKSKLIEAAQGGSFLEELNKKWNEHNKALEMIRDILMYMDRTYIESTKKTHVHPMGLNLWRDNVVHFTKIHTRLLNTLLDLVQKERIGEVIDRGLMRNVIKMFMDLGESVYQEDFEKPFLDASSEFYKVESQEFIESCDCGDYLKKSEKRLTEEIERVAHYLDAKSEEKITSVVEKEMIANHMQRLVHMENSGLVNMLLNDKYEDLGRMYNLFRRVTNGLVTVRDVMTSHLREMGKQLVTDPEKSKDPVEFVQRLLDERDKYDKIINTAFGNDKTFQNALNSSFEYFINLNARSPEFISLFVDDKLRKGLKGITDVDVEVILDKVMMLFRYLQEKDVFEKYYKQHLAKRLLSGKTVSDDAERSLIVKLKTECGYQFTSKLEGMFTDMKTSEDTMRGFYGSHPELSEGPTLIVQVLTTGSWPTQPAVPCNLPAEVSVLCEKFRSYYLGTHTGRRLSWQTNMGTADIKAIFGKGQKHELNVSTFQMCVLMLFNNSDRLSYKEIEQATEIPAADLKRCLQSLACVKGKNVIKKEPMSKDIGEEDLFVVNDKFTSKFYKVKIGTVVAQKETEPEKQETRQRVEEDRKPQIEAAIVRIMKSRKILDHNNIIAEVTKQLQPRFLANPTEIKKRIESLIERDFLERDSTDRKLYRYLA

Data on 1 variant can be found in IntAct's records for PubMed 19490895.

The assay covers variants of B1. Conditions: with cul3a_arath CUL3A.
Consider MDTTIDGFADAYEIASTSFVATDNTDSSIVYLAAEQVLTGPDVSALQLLSNSFESVFDSPDDFYSDAKLVLSDGREVSFHRCVLSARSSFFKSALAAAKKEKDSNNTAAVKLELKEIAKDYEVGFDSVVTVLAYVYSSRVRPPPKGVSECADENCCHVACRPAVDFMLEVLYLAFIFKIPELITLYQRHLLDVVDKVVIEDTLVILKLANICGKACMKLLDRCKEIIVKSNVDMVSLEKSLPEELVKEIIDRRKELGLEVPKVKKHVSNVHKALDSDDIELVKLLLKEDHTNLDDACALHFAVAYCNVKTATDLLKLDLADVNHRNPRGYTVLHVAAMRKEPQLILSLLEKGASASEATLEGRTALMIAKQATMAVECNNIPEQCKHSLKGRLCVEILEQEDKREQIPRDVPPSFAVAADELKMTLLDLENRVALAQRLFPTEAQAAMEIAEMKGTCEFIVTSLEPDRLTGTKRTSPGVKIAPFRILEEHQSRLKALSKTVELGKRFFPRCSAVLDQIMNCEDLTQLACGEDDTAEKRLQKKQRYMEIQETLKKAFSEDNLELGNSSLTDSTSSTSKSTGGKRSNRKLSHRRR [S11A;S15A], for which the “effect of a mutation on the interaction” value is listed as “decreasing interaction”.
